The source of these data is patent publication US20240182596A1 (TUBULIS, published 2024).

Assay [1] concerns the target T1, human NaPi2b on NaPi2b-positive cell lines OVCAR-3 and HCC-78 (human, UniProt O95436 1-690).
T1 sequence: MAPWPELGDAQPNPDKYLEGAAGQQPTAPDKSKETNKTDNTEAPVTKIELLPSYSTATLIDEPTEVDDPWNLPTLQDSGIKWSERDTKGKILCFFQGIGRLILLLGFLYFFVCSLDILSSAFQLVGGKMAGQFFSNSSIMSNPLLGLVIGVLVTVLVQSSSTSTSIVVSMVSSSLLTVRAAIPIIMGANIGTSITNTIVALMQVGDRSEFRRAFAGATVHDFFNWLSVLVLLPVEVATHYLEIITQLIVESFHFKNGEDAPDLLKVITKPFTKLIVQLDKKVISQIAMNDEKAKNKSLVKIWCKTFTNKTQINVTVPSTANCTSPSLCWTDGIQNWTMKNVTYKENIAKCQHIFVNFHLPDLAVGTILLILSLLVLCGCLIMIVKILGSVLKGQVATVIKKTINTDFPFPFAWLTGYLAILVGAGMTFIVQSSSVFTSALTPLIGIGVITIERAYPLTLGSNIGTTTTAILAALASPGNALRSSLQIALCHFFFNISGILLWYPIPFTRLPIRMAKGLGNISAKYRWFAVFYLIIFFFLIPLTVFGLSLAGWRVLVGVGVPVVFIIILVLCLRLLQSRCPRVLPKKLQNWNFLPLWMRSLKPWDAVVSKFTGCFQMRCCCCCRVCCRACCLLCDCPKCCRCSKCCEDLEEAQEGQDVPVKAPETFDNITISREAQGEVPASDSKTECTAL
Kind of assay: cell-based or functional assay.

In assay [2] the target is T2, recombinant human FcγRI (FcγR-SmBiT, Lumit assay) (human, UniProt P12314 16-292).
T2 construct: Kit reagent (Promega); also called FcγRI (CD64); not shown: SmBiT label of the kit
The experiment in a line: Lumit FcγRI Binding Immunoassay (Promega), competition with Tracer-LgBiT for FcγRI-SmBiT, falling luminescence means binding, n=1.

In assay [3] the target is T3, human Napi2a-mCherry on HEK293 cells (human, UniProt Q06495 1-639).
T3 construct: whole, on cells; also called Napi2a (SLC34A1); not shown: mCherry fusion
T3 sequence (looked up): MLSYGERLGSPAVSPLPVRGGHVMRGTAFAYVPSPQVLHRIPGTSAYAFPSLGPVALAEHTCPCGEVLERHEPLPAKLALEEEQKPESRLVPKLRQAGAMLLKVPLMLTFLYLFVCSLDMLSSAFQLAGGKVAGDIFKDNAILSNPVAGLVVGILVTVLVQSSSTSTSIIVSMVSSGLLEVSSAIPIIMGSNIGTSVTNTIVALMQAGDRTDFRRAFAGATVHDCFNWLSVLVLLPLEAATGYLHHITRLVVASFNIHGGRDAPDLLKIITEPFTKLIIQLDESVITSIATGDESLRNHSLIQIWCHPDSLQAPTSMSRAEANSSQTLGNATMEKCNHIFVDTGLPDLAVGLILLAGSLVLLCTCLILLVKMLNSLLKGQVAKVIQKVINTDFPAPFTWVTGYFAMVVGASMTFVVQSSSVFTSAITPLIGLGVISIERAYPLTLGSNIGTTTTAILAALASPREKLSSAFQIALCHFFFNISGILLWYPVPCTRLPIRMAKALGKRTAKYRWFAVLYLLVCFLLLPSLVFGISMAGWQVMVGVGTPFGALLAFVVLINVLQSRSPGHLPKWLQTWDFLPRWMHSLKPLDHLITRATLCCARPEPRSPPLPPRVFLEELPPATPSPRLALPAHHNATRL
The experiment in a line: flow cytometry on HEK293 cells expressing human Napi2a-mCherry (panel Napi2a-HEK293), MFI ratio to the non-specific binding control. Background: In flow cytometry, cells or beads pass a laser one at a time.

The target of assay [4] is T4, human Napi2c-mCherry on HEK293 cells (human, UniProt Q8N130 1-599).
T4 construct: whole, on cells; also called Napi2c (SLC34A3); not shown: mCherry fusion
T4 sequence (looked up): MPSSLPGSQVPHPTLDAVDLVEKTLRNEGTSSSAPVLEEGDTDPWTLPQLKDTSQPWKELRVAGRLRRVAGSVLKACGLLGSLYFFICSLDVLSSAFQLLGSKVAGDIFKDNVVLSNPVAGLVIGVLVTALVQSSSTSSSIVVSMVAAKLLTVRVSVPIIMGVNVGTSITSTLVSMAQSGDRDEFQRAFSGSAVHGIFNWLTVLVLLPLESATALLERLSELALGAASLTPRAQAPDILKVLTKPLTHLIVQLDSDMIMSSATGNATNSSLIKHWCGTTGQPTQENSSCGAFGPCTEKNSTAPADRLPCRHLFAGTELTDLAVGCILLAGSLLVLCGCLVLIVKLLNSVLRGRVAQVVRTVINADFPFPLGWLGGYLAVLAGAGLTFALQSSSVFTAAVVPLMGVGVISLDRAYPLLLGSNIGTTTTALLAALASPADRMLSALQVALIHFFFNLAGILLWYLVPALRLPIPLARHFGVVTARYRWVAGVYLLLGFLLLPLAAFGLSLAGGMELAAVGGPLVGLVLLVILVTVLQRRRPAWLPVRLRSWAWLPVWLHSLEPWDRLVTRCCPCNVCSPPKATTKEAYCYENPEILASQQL
Kind of assay: flow cytometry on HEK293 cells expressing human Napi2c-mCherry (panel Napi2c-HEK293), MFI ratio to the non-specific binding control.

In another assay the target is T5, FcγRIIa (CD32) (H131) (Fused to the SmBiT luciferase fragment (Promega Lumit reagent), not carried in the letters).
T5 construct: m20 joins both polymorphic variants; also called H131 variant of m20; not shown: SmBiT tag (and any linker or purification tag) of Promega's FcγR-SmBiT fusion
T5 chain: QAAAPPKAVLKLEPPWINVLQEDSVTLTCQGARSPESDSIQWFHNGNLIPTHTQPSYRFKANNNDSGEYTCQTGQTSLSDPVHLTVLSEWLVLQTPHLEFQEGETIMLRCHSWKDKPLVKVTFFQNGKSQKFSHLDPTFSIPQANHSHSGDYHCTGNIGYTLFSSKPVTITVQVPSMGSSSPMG
Kind of assay: Lumit FcγRIIa (H131) Binding Immunoassay (Promega), left panel FcγRIIa (CD32) (H131), competition with Tracer-LgBiT for FcγR-SmBiT, n=1.

The target of the next assay is T6, FcγRIIIa (CD16) (V158) (Homo sapiens, UniProt P08637).
T6 construct: m21 joins both polymorphic variants; also called V158 variant of m21
The experiment in a line: Lumit FcγRIIIa (V158) Binding Immunoassay (Promega), left panel FcγRIIIa (CD16) (V158), competition with Tracer-LgBiT for FcγR-SmBiT, falling luminescence means binding, n=1.

The next assay deals with T7, FcγRIIIa (CD16) (F158) (Homo sapiens, UniProt P08637).
T7 construct: m21 joins both polymorphic variants; also called F158 variant of m21
Kind of assay: Lumit FcγRIIIa (F158) Binding Immunoassay (Promega), right panel FcγRIIIa (CD16) (F158), competition with Tracer-LgBiT for FcγR-SmBiT, falling luminescence means binding, n=1.

Assay [5] has as its target T8, human Napi2b-mCherry on HEK293 cells (human, UniProt O95436 1-690).
T8 construct: also called Napi2b (SLC34A2); HEK293 cells overexpressing Napi2b
T8 sequence: T1 sequence
The experiment in a line: flow cytometry on HEK293 cells expressing human Napi2b-mCherry (panel Napi2b-HEK293), Alexa-dye anti-human IgG H+L secondary antibody, MFI ratio to the non-specific binding control.

T6 sequence (P08637 17-208 F176V limits assumed): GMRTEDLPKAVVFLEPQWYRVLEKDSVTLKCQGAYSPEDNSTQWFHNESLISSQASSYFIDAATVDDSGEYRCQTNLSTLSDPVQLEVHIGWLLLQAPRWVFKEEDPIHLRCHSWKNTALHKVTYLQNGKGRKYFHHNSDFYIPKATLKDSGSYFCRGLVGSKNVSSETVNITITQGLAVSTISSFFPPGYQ
T7 sequence (P08637 17-208 limits assumed): as the sequence (P08637 17-208 F176V limits assumed) above, with V160F counted along it
T2 sequence (P12314 16-292): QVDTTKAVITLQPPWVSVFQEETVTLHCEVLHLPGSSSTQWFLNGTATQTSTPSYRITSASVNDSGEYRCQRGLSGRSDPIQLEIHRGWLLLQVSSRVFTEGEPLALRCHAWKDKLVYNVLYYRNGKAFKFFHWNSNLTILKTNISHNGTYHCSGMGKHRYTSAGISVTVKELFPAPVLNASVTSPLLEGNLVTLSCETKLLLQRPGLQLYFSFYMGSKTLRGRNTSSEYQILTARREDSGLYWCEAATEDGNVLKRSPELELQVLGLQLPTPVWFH

B1: AV25-P5(PEG24)-VC-PAB-Exatecan DAR8 ADC (antibody, human IgG1, kappa, L234A L235A)
heavy: not shown
light: DIQMTQSPSSLSASVGDRVTITCSASQDIGNFLNWYQQKPGKTVKVLIYYASSLYSGVPSRFSGSGSGTDYTLTISSLQPEDFATYYCQQYSKLPLTFGQGTKLELKRTVAAPSVFIFPPSDEQLKSGTASVVCLLNNFYPREAKVQWKVDNALQSGNSQESVTEQDSKDSTYSLSSTLTLSKADYEKHKVYACEVTHQGLSSPVTKSFNRGEC
modifications: P5(PEG24)-VC-PAB-Exatecan linker-payload on the interchain cysteine (1 per light chain, DAR8); P5(PEG24)-VC-PAB-Exatecan linker-payload on interchain cysteines (up to 3 per heavy chain, DAR8)
notes: also called TUB-040
In general, EC50 (read off the curve) refers to the concentration giving half of the maximal effect. Regarding B1, the “IC50 of cytotoxicity (resazurin assay, 7 days) on HCC-78, against the anti-Napi2b comparison ADC” value in assay [1] is 15.5 fold lower IC50. Moreover, the binding result in assay [2] is on record as “binds”; in assay [3] it was “no binding (tested: 200 nM)”; in assay [4], “no binding (tested: 200 nM)”; in the assay with FcγRIIa (CD32) (H131), “no binding”; in the assay with FcγRIIIa (CD16) (V158) it was “binds”; in the assay with FcγRIIIa (CD16) (F158), “binds”. For the same molecule, in assay [5], the “EC50 (read off the curve)” value is approximately 0.9 nM.
